Holding throughout (experiment): EC50 of free RNA motif oligo competing protein binding to immobilised probe
For one series, the target named is CSNK2A1 (UniProt P68400). In outline: (§1)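 Free RNA oligos (0 nM to 30 μM) competed for 1 h at 4°C in HEK293-FT lysate (2.5 mg protein/well) before a 30 min, 4°C pulldown with the same oligos on NHS-Sepharose beads. Bound proteins were quantified by label-free LC-MS/MS and normalised to the control. Kd was found by multiplying EC50, from a four-parameter log-logistic fit, by a protein-dependent depletion factor.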

Another series deals with T1, PABPN1 (UniProt Q86U42).
T1 sequence: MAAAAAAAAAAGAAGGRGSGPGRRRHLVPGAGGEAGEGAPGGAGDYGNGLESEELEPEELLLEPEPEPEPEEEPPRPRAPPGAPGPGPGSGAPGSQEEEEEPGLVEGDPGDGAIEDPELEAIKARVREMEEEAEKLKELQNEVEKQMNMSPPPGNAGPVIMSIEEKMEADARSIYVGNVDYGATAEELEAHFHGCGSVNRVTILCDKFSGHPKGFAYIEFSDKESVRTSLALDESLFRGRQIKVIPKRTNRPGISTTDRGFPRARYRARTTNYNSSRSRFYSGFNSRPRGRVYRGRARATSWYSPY
The procedure, abridged:
as §1

Another series concerns the target IGF2BP1 (UniProt Q9NZI8). In outline:
as §1

The next series concerns the target MRPS31 (UniProt Q92665). The procedure, abridged:
as §1

A further series has as its target T2, PRPF3 (UniProt O43395).
T2 sequence: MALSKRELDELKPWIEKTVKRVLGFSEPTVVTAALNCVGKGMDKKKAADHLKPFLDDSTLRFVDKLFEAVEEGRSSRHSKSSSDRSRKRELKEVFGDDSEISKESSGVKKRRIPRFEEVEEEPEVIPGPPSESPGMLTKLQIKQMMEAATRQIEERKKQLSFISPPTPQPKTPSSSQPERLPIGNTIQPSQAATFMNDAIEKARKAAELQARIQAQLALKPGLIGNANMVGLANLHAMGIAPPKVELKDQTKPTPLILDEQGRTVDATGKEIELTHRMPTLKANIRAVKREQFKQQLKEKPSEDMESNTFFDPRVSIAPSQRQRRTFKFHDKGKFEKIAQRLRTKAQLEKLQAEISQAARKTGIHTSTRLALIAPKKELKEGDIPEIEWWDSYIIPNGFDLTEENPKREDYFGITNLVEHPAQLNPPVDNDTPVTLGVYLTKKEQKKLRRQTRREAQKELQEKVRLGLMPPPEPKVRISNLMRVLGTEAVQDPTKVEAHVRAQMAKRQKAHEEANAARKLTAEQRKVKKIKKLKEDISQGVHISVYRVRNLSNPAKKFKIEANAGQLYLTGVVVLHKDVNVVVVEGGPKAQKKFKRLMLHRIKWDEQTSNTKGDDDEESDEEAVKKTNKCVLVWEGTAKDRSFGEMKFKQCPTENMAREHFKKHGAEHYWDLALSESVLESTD
The procedure, abridged:
as §1

The next series deals with ZCCHC11 (UniProt Q5TAX3). The procedure, abridged:
as §1

In the next series the target is T3, CDKN2AIP (UniProt Q9NXV6).
T3 sequence: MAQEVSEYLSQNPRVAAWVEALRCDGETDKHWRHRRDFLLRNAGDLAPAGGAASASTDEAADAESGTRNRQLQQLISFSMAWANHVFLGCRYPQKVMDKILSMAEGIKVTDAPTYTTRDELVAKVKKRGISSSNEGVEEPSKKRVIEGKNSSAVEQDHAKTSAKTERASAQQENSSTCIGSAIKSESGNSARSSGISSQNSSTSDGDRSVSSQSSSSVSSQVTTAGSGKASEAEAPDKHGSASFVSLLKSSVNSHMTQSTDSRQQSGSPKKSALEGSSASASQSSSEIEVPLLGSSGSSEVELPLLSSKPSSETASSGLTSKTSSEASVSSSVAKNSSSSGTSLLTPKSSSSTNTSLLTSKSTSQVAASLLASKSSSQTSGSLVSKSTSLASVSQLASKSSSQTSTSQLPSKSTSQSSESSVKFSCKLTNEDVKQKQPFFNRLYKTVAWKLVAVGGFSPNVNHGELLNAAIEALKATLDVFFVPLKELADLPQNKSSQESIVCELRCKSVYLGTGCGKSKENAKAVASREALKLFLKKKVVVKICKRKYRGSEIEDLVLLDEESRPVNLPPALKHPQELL
The procedure, abridged:
as §1

The next series deals with MRPS7 (UniProt Q9Y2R9). In outline: as §1
The target in another series is MRPS28 (UniProt Q9Y2Q9). The procedure, abridged: as §1

From the supplement of paper PMC6379048 come the findings set out here.

IGF2BP1, sequence (Q9NZI8 whole entry): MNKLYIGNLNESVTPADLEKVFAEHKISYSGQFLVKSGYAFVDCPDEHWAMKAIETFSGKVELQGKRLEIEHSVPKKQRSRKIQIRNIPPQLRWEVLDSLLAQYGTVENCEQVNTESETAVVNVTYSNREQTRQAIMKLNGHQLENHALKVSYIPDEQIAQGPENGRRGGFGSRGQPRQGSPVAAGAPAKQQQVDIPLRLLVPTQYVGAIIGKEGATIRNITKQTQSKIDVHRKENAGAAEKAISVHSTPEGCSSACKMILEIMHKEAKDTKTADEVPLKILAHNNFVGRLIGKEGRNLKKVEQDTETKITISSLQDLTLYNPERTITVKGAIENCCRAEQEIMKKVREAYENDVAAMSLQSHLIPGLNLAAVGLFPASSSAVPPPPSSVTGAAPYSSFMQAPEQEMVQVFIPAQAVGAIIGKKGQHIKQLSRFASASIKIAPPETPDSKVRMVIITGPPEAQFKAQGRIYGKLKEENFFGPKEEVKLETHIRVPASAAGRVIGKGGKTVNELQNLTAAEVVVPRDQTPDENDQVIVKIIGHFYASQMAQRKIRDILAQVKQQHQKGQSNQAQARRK
CSNK2A1, sequence (P68400 whole entry, looked up): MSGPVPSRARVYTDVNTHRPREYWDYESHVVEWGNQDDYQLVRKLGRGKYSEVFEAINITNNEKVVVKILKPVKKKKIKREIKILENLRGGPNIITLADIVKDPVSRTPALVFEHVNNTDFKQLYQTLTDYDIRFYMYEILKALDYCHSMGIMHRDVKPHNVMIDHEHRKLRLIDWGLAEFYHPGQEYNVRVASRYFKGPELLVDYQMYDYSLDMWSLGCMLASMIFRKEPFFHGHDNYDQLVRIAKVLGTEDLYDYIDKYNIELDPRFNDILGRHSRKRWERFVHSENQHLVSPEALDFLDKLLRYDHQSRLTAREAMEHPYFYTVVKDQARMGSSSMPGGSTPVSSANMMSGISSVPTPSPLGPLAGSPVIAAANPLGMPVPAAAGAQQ
ZCCHC11, sequence (Q5TAX3 whole entry): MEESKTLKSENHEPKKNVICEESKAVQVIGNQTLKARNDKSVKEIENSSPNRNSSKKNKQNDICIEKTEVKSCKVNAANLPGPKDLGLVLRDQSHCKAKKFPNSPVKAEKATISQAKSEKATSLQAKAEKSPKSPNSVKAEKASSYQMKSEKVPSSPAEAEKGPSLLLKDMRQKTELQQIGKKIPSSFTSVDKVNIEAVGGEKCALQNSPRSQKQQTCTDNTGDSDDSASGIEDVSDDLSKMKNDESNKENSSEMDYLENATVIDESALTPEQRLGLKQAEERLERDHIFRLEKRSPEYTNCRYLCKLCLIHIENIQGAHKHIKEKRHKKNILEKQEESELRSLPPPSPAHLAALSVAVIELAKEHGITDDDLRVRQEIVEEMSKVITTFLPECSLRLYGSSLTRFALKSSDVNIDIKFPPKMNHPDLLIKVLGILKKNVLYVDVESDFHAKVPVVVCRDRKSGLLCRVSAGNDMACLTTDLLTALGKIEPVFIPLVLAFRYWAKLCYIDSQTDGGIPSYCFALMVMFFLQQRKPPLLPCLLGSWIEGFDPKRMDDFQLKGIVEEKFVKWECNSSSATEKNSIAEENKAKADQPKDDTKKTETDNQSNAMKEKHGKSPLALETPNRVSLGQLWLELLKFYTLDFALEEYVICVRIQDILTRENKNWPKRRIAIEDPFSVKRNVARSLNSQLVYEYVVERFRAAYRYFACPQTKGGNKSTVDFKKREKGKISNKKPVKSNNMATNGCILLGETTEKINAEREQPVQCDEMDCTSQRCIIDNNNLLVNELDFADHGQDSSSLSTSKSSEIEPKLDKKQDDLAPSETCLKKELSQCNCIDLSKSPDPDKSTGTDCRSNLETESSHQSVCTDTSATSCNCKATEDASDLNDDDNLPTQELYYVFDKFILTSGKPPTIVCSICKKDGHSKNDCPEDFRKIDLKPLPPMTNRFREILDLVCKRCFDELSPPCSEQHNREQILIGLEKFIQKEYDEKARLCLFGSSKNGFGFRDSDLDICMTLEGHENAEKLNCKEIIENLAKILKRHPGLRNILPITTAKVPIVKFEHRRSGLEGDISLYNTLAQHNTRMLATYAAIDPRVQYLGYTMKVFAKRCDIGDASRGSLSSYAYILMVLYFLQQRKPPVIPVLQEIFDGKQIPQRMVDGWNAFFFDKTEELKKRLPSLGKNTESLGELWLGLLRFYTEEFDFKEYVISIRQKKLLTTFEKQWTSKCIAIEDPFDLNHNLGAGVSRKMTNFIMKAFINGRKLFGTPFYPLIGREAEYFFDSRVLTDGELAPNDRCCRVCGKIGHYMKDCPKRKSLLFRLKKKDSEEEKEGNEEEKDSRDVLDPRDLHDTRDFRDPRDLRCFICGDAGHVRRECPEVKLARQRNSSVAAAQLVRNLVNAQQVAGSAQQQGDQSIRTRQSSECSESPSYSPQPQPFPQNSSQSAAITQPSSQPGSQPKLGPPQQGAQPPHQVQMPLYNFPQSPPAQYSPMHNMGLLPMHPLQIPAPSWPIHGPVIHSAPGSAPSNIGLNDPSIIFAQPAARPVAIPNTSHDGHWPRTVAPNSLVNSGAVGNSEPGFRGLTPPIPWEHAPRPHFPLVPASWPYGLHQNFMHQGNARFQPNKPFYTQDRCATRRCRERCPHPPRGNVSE

A word on the EC50: it is the concentration needed to bring the measured effect to its halfway point. A higher EC50 goes with a need for much substance. AAUAAA: the EC50 turned out to be 124 nM with CSNK2A1 and 3520 nM with PABPN1.
Sequence CUGUCCU yielded an EC50 with IGF2BP1 of 3740 nM.
Regarding UAUUUAU, the concentration giving a half-maximal response (EC50) in the series with MRPS31 stood at 93.7 nM; with PRPF3, 7130 nM; in the series with ZCCHC11, 108 nM; with CDKN2AIP it was 419 nM; with MRPS7 it was 84.2 nM; in the series with MRPS28, 56.1 nM.
